B1: CDC34 (parent)
chain: GGYFKARLKFPIDYPYSPPAFRFL
B2: FAM9B (parent)
chain: EDLTAKRKRMKMDKTCSKTKNKSK

Variants of: B1
Assay: protein stability index of a GFP-peptide fusion (GPS, HEK-293T) (PSI 1-6); higher = more stable
Conditions: c terminus: a fixed tail appended
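Further: lentivirally expressed fusions sorted by FACS into six bins by GFP to DsRed ratio, PSI derived from sequencing read proportions per bin multiplied by bin number.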

Protein stability index: each site, then its substitutions
Y16: F 2.86, H 3.2, C 2.73, D 1.57, R 2.6, A 2.38, G 2.83
A20: K 3.03, T 2.95, C 1.71, F 3.14, R 3.03, L 2.52, V 2.96, E 3.68
P19: K 2.99, H 2.67, T 3.29, M 3.23, L 3.41, S 2.64, A 2.29, Q 2.55, E 2.21
K5: F 3.5, T 2.69, R 2.71, V 3.61, P 1.98, M 3.16
G2: S 2.18, P 3.31, D 2.29, W 2.23, T 3.26, C 2.22, E 1.94, I 3.05
L24: D 2.33, T 3.35, E 1.76, W 2.05, Q 2.95, Y 2.4, A 3.55
K9: F 3.11, E 3.56, I 3.15, Q 2.55, A 2.74, T 2.11
F4: K 3.11, W 1.73, P 1.54, M 2.51, C 3.82, N 2.72, R 2.76, D 2, Q 1.75, L 3.57, A 2.97
G1: C 2.8, N 3.03, H 2.91, I 3.18, W 2.88, Q 2.39, A 2.86, V 2.45, D 1.94, P 2.61
I12: M 1.39, L 2.49, F 3.1, R 1.7, E 2.83, Y 3.17, K 2.61
S17: V 4.24, M 2.9, F 2.93, R 3.12, D 2.77, N 3.85, Y 2.44
D13: H 3.16, K 3.03, A 3.56, R 3.03, S 2.34, I 3.04, M 1.68, C 2.51, T 2.82, V 3.06
F21: S 1.54, V 3.33, G 3.19, A 2.57, I 2.48, N 1.88, Q 3.14
L8: Y 1.53, P 2.19, H 2.54, M 3.8, R 1.25, W 2.65, S 2.89, F 3.29, A 2.66, C 2.65
Y3: I 2.63, W 2.33, N 2.44, T 2.39, K 3.54, C 3.72, Q 3.35, M 2.46, S 1.54, H 3.02, A 2.68
P15: S 3.76, N 2.31, E 2.84, T 2.51, W 2.9, A 3.19, C 3.05, G 2.62, L 2.92, H 3.92
F10: R 2.94, N 3.08, W 3.49, S 3.88, Y 2.87, C 2.89, M 2.53
Y14: L 2.75, V 2.7, S 4.54, E 2.06, D 3.03, N 2.47, R 2.09
P18: N 2.51, M 2.19, G 2.4, A 2.96, H 2.33, S 3.15
R22: A 4.99, K 2.74, V 4.1, N 2.73, Y 2.7, Q 2.65, P 2.62, D 3.74, T 2.52, E 2.58, H 2.87
F23: A 2.82, M 2.48, E 2.19, W 1.43, I 2.08, S 2.95, Y 1.26, H 4.27, D 2.71, V 3.6, L 1.54, T 2.74
P11: M 3.98, A 2.77, L 4.07, K 2.13, R 2.99, I 2.84, N 3.45, Y 3.2, W 2.87
A6: L 2.36, V 2.15, R 3.77, G 3.12, E 2.33, N 3.51, T 2.76, Y 3.56
R7: S 2.3, V 3.25, H 3.7, Q 1.72, A 1.8, G 2.45

Variants of: B2
Assay: as above
Conditions: c terminus: a fixed tail appended

Protein stability index of substitutions, site by site:
K8: Y 4.33, E 4.99, V 5.13, A 4.94
S23: Y 5.07, F 4.6, K 5.06, Q 5.1
M12: L 4.79, T 5.54
D13: P 4.66, W 4.8, C 4.33, R 4.49, H 4.64, K 4.7
S17: A 4.7, M 5.39, P 4.93, W 5.02
L3: W 4.6, C 5.09, H 5.43, Y 5.23
K24: R 5.06, W 3.98, T 5.15, M 4.96
K20: P 4.75, T 5.25, F 4.46, M 4.57, N 4.87, E 5.07
C16: V 5.53, Y 5.54, A 4.69, L 5.05, P 5.57, K 4.96, F 4.93, T 5.63, Q 5.45
E1: H 4.87, M 4.15, F 4.53, S 5.16, T 4.91
R7: M 4.75, E 5.45, K 5.16, I 4.82, A 5.09, H 4.95, V 4.87
K6: P 5.59, C 4.78, G 5.69, H 5.37, F 4.42, N 4.85, V 4.65, I 5.1
D2: E 5.3, R 4.43, G 5.21, Y 3.69, K 4.9
T19: P 4.89, A 5.16, G 4.94, I 4.9, Y 4.75, M 5.15
R9: F 5.14, E 5.12, G 4.9, K 5.33, P 4.4, M 5.07, Q 5.58, C 5.05
M10: P 4.75, Y 4.94, W 4.96, R 5.64, E 5.43
K14: V 5.07, A 4.99, S 5.03, Y 5.22
A5: L 5.37, K 4.15, S 5.5, F 4.42, G 5.47, Y 5.13
K11: E 5.29, Y 4.26, M 4.21, G 5.19, I 4.47, D 5.22, A 5.04
T4: N 4.8, F 4.72, H 5.29, K 5.54, V 5.02, E 5, D 5.5, C 4.52, I 4.58, M 4.45
K22: W 4.19, Y 5.07, V 4.39, T 5.11, P 5.58, N 4.83
K18: Y 4.59, Q 5.57, G 4.83, T 4.89
T15: E 5.2, P 5, K 4.48, L 5.07, V 4.9
N21: Y 4.77, K 5.33, T 5.42, C 4.95, S 5.46
